Assay results: the supplement of paper PMC10065799, “High-throughput profiling of sequence recognition by tyrosine kinases and SH2 domains using bacterial peptide display” (eLife, 2023)
One block for each sequence: values may come before it.

Legend:
c-Abl (mouse) = assay: phosphorylation enrichment, bacterial display (enrichment ratio); higher = better substrate or ligand; peptides without Tyr show the background
AncSZ = assay: as above
EPHB1 = EPHB1 (UniProt P54762); assay: as above
Fes = Fes (UniProt P07332); assay: as above
Chain of Fes (P07332 whole entry, looked up): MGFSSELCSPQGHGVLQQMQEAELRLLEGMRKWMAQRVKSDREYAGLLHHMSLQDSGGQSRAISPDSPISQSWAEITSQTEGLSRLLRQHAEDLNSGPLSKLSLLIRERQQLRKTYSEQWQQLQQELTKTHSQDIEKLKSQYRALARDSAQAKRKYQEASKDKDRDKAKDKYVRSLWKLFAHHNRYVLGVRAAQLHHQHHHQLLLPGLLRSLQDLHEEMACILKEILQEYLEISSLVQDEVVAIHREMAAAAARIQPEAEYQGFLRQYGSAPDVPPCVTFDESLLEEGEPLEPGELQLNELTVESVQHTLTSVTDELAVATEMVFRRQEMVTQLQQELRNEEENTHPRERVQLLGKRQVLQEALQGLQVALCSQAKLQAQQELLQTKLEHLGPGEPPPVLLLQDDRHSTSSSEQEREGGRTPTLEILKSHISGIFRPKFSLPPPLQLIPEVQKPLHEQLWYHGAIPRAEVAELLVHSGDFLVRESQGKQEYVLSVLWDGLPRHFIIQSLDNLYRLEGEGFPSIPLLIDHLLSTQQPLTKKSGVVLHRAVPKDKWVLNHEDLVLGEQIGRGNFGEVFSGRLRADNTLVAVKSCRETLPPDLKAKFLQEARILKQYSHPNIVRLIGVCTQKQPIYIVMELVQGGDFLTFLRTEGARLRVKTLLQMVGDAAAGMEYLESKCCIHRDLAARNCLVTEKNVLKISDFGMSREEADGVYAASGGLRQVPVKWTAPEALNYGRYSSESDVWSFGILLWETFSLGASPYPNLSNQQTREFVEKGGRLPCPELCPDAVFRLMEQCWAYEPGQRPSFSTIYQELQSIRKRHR

MERTK = MERTK (UniProt Q12866); assay: as above
Chain of MERTK (Q12866 whole entry, looked up): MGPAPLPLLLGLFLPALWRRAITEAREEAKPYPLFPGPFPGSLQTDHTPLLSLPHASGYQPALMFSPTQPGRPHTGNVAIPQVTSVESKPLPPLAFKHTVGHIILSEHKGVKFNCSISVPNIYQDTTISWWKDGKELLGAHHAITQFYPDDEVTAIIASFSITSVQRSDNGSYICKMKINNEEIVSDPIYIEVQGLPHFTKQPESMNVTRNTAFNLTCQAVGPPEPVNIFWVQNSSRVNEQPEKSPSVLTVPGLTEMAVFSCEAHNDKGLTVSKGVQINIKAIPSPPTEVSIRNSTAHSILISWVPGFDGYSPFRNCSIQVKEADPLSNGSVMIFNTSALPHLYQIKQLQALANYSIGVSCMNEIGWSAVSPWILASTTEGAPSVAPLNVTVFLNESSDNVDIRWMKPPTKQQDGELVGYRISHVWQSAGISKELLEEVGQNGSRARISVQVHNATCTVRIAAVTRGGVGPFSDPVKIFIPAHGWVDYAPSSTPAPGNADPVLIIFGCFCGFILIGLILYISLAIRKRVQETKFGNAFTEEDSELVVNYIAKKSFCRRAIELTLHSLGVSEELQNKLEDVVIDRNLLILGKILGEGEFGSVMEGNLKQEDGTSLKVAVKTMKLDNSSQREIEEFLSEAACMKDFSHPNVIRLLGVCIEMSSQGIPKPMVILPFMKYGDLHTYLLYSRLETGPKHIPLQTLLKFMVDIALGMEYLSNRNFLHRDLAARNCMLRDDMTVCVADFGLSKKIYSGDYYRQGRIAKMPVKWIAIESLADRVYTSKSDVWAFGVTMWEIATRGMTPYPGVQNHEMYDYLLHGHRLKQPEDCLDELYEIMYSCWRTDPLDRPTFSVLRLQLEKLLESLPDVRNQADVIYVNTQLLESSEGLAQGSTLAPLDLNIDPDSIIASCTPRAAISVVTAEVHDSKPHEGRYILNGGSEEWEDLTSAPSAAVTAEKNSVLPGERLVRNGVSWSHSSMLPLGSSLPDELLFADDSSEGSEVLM

FGFR1 = FGFR1 (UniProt P11362); assay: as above
Chain of FGFR1 (P11362 whole entry, looked up): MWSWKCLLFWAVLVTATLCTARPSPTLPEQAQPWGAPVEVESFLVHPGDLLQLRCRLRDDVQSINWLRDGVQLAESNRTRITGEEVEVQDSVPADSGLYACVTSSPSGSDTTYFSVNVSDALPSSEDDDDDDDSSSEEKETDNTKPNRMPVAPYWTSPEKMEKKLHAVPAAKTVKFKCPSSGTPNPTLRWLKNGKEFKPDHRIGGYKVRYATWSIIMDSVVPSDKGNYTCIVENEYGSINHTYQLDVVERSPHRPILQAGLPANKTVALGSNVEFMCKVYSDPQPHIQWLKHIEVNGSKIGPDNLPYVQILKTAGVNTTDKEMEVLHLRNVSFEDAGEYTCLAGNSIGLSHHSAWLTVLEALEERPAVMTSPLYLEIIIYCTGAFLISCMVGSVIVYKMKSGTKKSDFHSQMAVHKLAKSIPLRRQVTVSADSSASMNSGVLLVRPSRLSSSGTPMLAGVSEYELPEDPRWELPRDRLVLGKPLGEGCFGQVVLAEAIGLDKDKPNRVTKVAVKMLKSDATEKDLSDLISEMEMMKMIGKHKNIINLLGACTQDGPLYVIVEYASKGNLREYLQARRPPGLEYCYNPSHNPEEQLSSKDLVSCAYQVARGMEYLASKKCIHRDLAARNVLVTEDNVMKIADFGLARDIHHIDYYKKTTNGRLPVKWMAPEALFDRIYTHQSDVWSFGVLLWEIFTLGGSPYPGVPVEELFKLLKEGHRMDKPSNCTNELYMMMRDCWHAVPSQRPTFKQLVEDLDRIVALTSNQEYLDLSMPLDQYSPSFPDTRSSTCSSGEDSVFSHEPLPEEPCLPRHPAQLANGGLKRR

Fyn = Fyn (UniProt P06241); assay: as above
Jak2 = Jak2 (UniProt O60674); assay: as above
Hck = Hck (UniProt P08631); assay: as above
c-Src = assay: as above
Fer (mouse) = assay: as above
FGFR3 = FGFR3 (UniProt P22607); assay: as above
EPHB2 = EPHB2 (UniProt P29323); assay: as above
Chain of EPHB2 (P29323 whole entry, looked up): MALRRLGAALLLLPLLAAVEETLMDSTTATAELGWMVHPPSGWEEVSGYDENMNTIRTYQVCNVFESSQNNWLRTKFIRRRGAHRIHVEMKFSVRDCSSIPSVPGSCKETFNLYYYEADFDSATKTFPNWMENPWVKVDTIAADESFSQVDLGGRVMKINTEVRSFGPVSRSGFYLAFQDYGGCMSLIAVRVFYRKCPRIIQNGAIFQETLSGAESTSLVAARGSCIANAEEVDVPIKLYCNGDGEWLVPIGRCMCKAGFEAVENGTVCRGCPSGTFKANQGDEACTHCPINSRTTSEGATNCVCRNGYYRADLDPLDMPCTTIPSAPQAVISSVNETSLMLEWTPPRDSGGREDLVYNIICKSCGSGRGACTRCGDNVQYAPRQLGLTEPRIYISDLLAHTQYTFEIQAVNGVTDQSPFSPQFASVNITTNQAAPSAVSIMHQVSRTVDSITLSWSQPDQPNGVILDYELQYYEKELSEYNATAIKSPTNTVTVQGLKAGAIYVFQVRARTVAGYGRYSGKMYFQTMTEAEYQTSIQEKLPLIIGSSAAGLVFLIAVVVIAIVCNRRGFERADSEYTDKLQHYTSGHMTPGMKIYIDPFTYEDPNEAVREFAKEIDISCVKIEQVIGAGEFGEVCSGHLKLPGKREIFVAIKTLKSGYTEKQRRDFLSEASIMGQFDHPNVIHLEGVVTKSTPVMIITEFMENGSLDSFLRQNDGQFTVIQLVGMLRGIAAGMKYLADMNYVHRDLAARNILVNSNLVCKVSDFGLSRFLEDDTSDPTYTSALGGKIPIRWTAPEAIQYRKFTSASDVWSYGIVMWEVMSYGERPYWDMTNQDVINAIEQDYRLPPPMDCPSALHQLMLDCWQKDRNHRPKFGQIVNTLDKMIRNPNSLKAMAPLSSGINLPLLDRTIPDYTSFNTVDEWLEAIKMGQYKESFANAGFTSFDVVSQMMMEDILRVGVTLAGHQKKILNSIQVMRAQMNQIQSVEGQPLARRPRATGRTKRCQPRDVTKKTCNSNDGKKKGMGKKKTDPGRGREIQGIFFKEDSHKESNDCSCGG

c-Src SH2 = assay: SH2 binding enrichment of the phosphorylated peptide, bacterial display (enrichment ratio); higher = better substrate or ligand; peptides without Tyr show the background
Grb2 SH2 = Grb2 SH2 (UniProt P62993); assay: as above
SHP2-C SH2 = assay: as above
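Wherever SH2 binding enrichment of the phosphorylated peptide, bacterial display is given: peptide library displayed on the E. coli surface as eCPX fusions, selected cells deep-sequenced, score is each peptide's frequency after selection divided by its frequency in the input.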
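Wherever phosphorylation enrichment, bacterial display is given: 11-residue human phosphosite peptides and single-mutation variants displayed on the E. coli surface, counted by deep sequencing, each peptide's frequency after selection divided by its frequency in the unselected input library; frequency after pTyr selection over input frequency; kinase dosed for 20-30% of maximal phosphorylation in three min.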

Chain of EPHB1 (P54762 whole entry, looked up): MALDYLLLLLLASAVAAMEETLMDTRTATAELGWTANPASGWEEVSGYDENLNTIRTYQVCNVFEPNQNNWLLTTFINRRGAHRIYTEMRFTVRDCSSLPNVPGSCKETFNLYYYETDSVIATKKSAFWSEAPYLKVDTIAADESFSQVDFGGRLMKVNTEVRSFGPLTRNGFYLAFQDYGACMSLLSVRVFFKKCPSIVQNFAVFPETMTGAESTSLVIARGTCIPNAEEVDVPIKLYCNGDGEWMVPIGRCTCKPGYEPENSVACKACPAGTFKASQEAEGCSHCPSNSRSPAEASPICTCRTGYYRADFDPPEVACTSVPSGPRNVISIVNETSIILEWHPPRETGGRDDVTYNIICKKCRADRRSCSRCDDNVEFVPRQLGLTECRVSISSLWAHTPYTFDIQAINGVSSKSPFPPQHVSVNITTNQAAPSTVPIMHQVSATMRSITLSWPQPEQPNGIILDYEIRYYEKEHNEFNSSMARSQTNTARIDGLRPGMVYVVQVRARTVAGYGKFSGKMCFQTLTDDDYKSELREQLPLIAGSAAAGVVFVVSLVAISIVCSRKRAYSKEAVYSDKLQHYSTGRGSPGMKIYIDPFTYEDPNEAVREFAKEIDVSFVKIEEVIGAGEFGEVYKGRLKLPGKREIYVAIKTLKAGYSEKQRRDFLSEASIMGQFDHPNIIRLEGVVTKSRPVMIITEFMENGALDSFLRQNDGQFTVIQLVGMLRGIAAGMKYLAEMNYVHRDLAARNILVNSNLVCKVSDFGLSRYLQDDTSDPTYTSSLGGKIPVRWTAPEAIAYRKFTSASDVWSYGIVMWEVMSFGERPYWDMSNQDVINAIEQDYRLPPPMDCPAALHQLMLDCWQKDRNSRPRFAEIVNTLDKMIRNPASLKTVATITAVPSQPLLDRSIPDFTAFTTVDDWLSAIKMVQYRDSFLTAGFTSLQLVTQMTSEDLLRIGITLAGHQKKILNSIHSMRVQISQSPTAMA

Sequence: RMDGKYACSYT [FLNB_Y704_T703K]
phosphorylation enrichment (c-Abl (mouse)): 0.79
phosphorylation enrichment (AncSZ): 0.899
phosphorylation enrichment (EPHB1): 0.437
phosphorylation enrichment (Fes): 1.02
phosphorylation enrichment (MERTK): 0.484
phosphorylation enrichment (FGFR1): 0.528
phosphorylation enrichment (Fyn): 0.418
phosphorylation enrichment (Jak2): 0.722
phosphorylation enrichment (Hck): 0.541
phosphorylation enrichment (c-Src): 0.664
phosphorylation enrichment (Fer (mouse)): 0.635
phosphorylation enrichment (FGFR3): 0.518
phosphorylation enrichment (EPHB2): 0.471
SH2 binding enrichment (c-Src SH2): 0.878
SH2 binding enrichment (Grb2 SH2): 0.997
SH2 binding enrichment (SHP2-C SH2): 0.863

Sequence: RNPLRYTSILT [OR51B6_Y130_S126N]
phosphorylation enrichment (c-Abl (mouse)): 0.697
phosphorylation enrichment (AncSZ): 0.689
phosphorylation enrichment (EPHB1): 0.478
phosphorylation enrichment (Fes): 0.794
phosphorylation enrichment (MERTK): 0.484
phosphorylation enrichment (FGFR1): 0.582
phosphorylation enrichment (Fyn): 0.532
phosphorylation enrichment (Jak2): 0.892
phosphorylation enrichment (Hck): 0.498
phosphorylation enrichment (c-Src): 0.65
phosphorylation enrichment (Fer (mouse)): 0.474
phosphorylation enrichment (FGFR3): 0.738
phosphorylation enrichment (EPHB2): 0.482
SH2 binding enrichment (c-Src SH2): 3.12
SH2 binding enrichment (Grb2 SH2): 1.86
SH2 binding enrichment (SHP2-C SH2): 3.4

Sequence: RQGKDYVGAIP [KDR_Y951]
phosphorylation enrichment (c-Abl (mouse)): 0.636
phosphorylation enrichment (AncSZ): 0.705
phosphorylation enrichment (EPHB1): 0.471
phosphorylation enrichment (Fes): 0.832
phosphorylation enrichment (MERTK): 0.485
phosphorylation enrichment (FGFR1): 1.44
phosphorylation enrichment (Fyn): 0.552
phosphorylation enrichment (Jak2): 0.656
phosphorylation enrichment (Hck): 0.452
phosphorylation enrichment (c-Src): 0.487
phosphorylation enrichment (Fer (mouse)): 0.361
phosphorylation enrichment (FGFR3): 0.409
phosphorylation enrichment (EPHB2): 0.442
SH2 binding enrichment (c-Src SH2): 0.488
SH2 binding enrichment (Grb2 SH2): 0.818
SH2 binding enrichment (SHP2-C SH2): 0.79

Sequence: RRFSSYSQMEN [PKP1_Y120]
phosphorylation enrichment (c-Abl (mouse)): 0.808
phosphorylation enrichment (AncSZ): 2.29
phosphorylation enrichment (EPHB1): 0.984
phosphorylation enrichment (Fes): 2.57
phosphorylation enrichment (MERTK): 1.06
phosphorylation enrichment (FGFR1): 1.34
phosphorylation enrichment (Fyn): 1.48
phosphorylation enrichment (Jak2): 0.657
phosphorylation enrichment (Hck): 0.896
phosphorylation enrichment (c-Src): 0.614
phosphorylation enrichment (Fer (mouse)): 0.833
phosphorylation enrichment (FGFR3): 1.18
phosphorylation enrichment (EPHB2): 0.89
SH2 binding enrichment (c-Src SH2): 0.559
SH2 binding enrichment (Grb2 SH2): 0.79
SH2 binding enrichment (SHP2-C SH2): 0.774

Sequence: RRLEPYGENFN [APOA4_Y310_V307L]
phosphorylation enrichment (c-Abl (mouse)): 0.371
phosphorylation enrichment (AncSZ): 1.04
phosphorylation enrichment (EPHB1): 0.398
phosphorylation enrichment (Fes): 0.732
phosphorylation enrichment (MERTK): 0.385
phosphorylation enrichment (FGFR1): 0.266
phosphorylation enrichment (Fyn): 0.281
phosphorylation enrichment (Jak2): 0.681
phosphorylation enrichment (Hck): 0.25
phosphorylation enrichment (c-Src): 0.463
phosphorylation enrichment (Fer (mouse)): 0.315
phosphorylation enrichment (FGFR3): 0.493
phosphorylation enrichment (EPHB2): 0.317
SH2 binding enrichment (c-Src SH2): 0.527
SH2 binding enrichment (Grb2 SH2): 0.822
SH2 binding enrichment (SHP2-C SH2): 0.286

Sequence: RRRLIYRCQVG [NR2E3_Y81]
phosphorylation enrichment (c-Abl (mouse)): 0.697
phosphorylation enrichment (AncSZ): 0.776
phosphorylation enrichment (EPHB1): 0.76
phosphorylation enrichment (Fes): 1.05
phosphorylation enrichment (MERTK): 0.735
phosphorylation enrichment (FGFR1): 0.854
phosphorylation enrichment (Fyn): 0.915
phosphorylation enrichment (Jak2): 0.679
phosphorylation enrichment (Hck): 0.884
phosphorylation enrichment (c-Src): 0.556
phosphorylation enrichment (Fer (mouse)): 0.587
phosphorylation enrichment (FGFR3): 0.601
phosphorylation enrichment (EPHB2): 0.983
SH2 binding enrichment (c-Src SH2): 0.286
SH2 binding enrichment (Grb2 SH2): 0.727
SH2 binding enrichment (SHP2-C SH2): 0.566

Sequence: RSHRSYSCQVM [IGLL1_Y192_R189H]
phosphorylation enrichment (c-Abl (mouse)): 0.594
phosphorylation enrichment (AncSZ): 0.609
phosphorylation enrichment (EPHB1): 0.696
phosphorylation enrichment (Fes): 0.941
phosphorylation enrichment (MERTK): 0.526
phosphorylation enrichment (FGFR1): 0.637
phosphorylation enrichment (Fyn): 0.508
phosphorylation enrichment (Jak2): 0.57
phosphorylation enrichment (Hck): 0.559
phosphorylation enrichment (c-Src): 0.604
phosphorylation enrichment (Fer (mouse)): 0.416
phosphorylation enrichment (FGFR3): 0.671
phosphorylation enrichment (EPHB2): 0.512
SH2 binding enrichment (c-Src SH2): 1.16
SH2 binding enrichment (Grb2 SH2): 1.29
SH2 binding enrichment (SHP2-C SH2): 0.993

More lines, main results first:

SH2 binding enrichment (c-Src SH2): 0.586
SH2 binding enrichment (Grb2 SH2): 0.766
SH2 binding enrichment (SHP2-C SH2): 0.734
Sequence: RPQDGFRIVQH [PTPRT_Y1329_Y1329F]
phosphorylation enrichment (c-Abl (mouse)): 0.836
phosphorylation enrichment (AncSZ): 0.769
phosphorylation enrichment (EPHB1): 0.62
phosphorylation enrichment (Fes): 0.838
phosphorylation enrichment (MERTK): 0.52
phosphorylation enrichment (FGFR1): 0.43
phosphorylation enrichment (Fyn): 0.597
phosphorylation enrichment (Jak2): 0.561
phosphorylation enrichment (Hck): 0.532
phosphorylation enrichment (c-Src): 0.483
phosphorylation enrichment (Fer (mouse)): 0.417
phosphorylation enrichment (FGFR3): 0.45
phosphorylation enrichment (EPHB2): 0.426

SH2 binding enrichment (c-Src SH2): 0.417
SH2 binding enrichment (Grb2 SH2): 0.765
SH2 binding enrichment (SHP2-C SH2): 0.801
Sequence: RPSRQYATRDV [SCAMP3_Y35_L38R]
phosphorylation enrichment (c-Abl (mouse)): 0.615
phosphorylation enrichment (AncSZ): 0.598
phosphorylation enrichment (EPHB1): 0.366
phosphorylation enrichment (Fes): 0.498
phosphorylation enrichment (MERTK): 0.274
phosphorylation enrichment (FGFR1): 0.473
phosphorylation enrichment (Fyn): 0.396
phosphorylation enrichment (Jak2): 0.352
phosphorylation enrichment (Hck): 0.412
phosphorylation enrichment (c-Src): 0.407
phosphorylation enrichment (Fer (mouse)): 0.381
phosphorylation enrichment (FGFR3): 0.352
phosphorylation enrichment (EPHB2): 0.356

SH2 binding enrichment (c-Src SH2): 0.327
SH2 binding enrichment (Grb2 SH2): 0.544
SH2 binding enrichment (SHP2-C SH2): 0.57
Sequence: RRGMPYGGCGD [TGM1_Y312_R315C]
phosphorylation enrichment (c-Abl (mouse)): 0.595
phosphorylation enrichment (AncSZ): 0.782
phosphorylation enrichment (EPHB1): 0.551
phosphorylation enrichment (Fes): 0.489
phosphorylation enrichment (MERTK): 0.454
phosphorylation enrichment (FGFR1): 0.634
phosphorylation enrichment (Fyn): 0.522
phosphorylation enrichment (Jak2): 0.5
phosphorylation enrichment (Hck): 0.659
phosphorylation enrichment (c-Src): 0.486
phosphorylation enrichment (Fer (mouse)): 0.409
phosphorylation enrichment (FGFR3): 0.573
phosphorylation enrichment (EPHB2): 0.486

SH2 binding enrichment (c-Src SH2): 0.534
SH2 binding enrichment (Grb2 SH2): 0.95
SH2 binding enrichment (SHP2-C SH2): 0.478
Sequence: RRIHSYRGHLC [VHL_Y112_W117C]
phosphorylation enrichment (c-Abl (mouse)): 0.534
phosphorylation enrichment (AncSZ): 0.774
phosphorylation enrichment (EPHB1): 0.656
phosphorylation enrichment (Fes): 1.3
phosphorylation enrichment (MERTK): 0.828
phosphorylation enrichment (FGFR1): 0.503
phosphorylation enrichment (Fyn): 0.531
phosphorylation enrichment (Jak2): 0.821
phosphorylation enrichment (Hck): 0.63
phosphorylation enrichment (c-Src): 0.566
phosphorylation enrichment (Fer (mouse)): 0.382
phosphorylation enrichment (FGFR3): 0.733
phosphorylation enrichment (EPHB2): 0.619

SH2 binding enrichment (c-Src SH2): 0.51
SH2 binding enrichment (Grb2 SH2): 0.994
SH2 binding enrichment (SHP2-C SH2): 0.976
Sequence: RRMLQYLTVND [PPFIBP2_Y663]
phosphorylation enrichment (c-Abl (mouse)): 0.691
phosphorylation enrichment (AncSZ): 0.803
phosphorylation enrichment (EPHB1): 0.417
phosphorylation enrichment (Fes): 0.862
phosphorylation enrichment (MERTK): 0.475
phosphorylation enrichment (FGFR1): 0.63
phosphorylation enrichment (Fyn): 0.501
phosphorylation enrichment (Jak2): 0.882
phosphorylation enrichment (Hck): 0.686
phosphorylation enrichment (c-Src): 0.486
phosphorylation enrichment (Fer (mouse)): 0.456
phosphorylation enrichment (FGFR3): 0.632
phosphorylation enrichment (EPHB2): 0.584

SH2 binding enrichment (c-Src SH2): 0.529
SH2 binding enrichment (Grb2 SH2): 0.941
SH2 binding enrichment (SHP2-C SH2): 0.85
Sequence: RRSQSYIPTSG [PLEKHA2_Y185]
phosphorylation enrichment (c-Abl (mouse)): 0.497
phosphorylation enrichment (AncSZ): 0.663
phosphorylation enrichment (EPHB1): 0.372
phosphorylation enrichment (Fes): 0.709
phosphorylation enrichment (MERTK): 0.59
phosphorylation enrichment (FGFR1): 0.615
phosphorylation enrichment (Fyn): 0.707
phosphorylation enrichment (Jak2): 0.649
phosphorylation enrichment (Hck): 0.473
phosphorylation enrichment (c-Src): 0.682
phosphorylation enrichment (Fer (mouse)): 0.354
phosphorylation enrichment (FGFR3): 0.455
phosphorylation enrichment (EPHB2): 0.729

SH2 binding enrichment (c-Src SH2): 0.527
SH2 binding enrichment (Grb2 SH2): 0.852
SH2 binding enrichment (SHP2-C SH2): 0.774
Sequence: RRVPVYGGRGA [QDPR_Y16_L14P]
phosphorylation enrichment (c-Abl (mouse)): 1.28
phosphorylation enrichment (AncSZ): 0.969
phosphorylation enrichment (EPHB1): 0.573
phosphorylation enrichment (Fes): 0.836
phosphorylation enrichment (MERTK): 0.779
phosphorylation enrichment (FGFR1): 0.762
phosphorylation enrichment (Fyn): 0.626
phosphorylation enrichment (Jak2): 1.36
phosphorylation enrichment (Hck): 0.702
phosphorylation enrichment (c-Src): 1.15
phosphorylation enrichment (Fer (mouse)): 0.626
phosphorylation enrichment (FGFR3): 0.627
phosphorylation enrichment (EPHB2): 0.512

SH2 binding enrichment (c-Src SH2): 0.409
SH2 binding enrichment (Grb2 SH2): 0.665
SH2 binding enrichment (SHP2-C SH2): 0.633
Sequence: RTEAQYRFIFM [PTPN11_Y511_Q506R_YF]
phosphorylation enrichment (c-Abl (mouse)): 0.765
phosphorylation enrichment (AncSZ): 1.37
phosphorylation enrichment (EPHB1): 0.52
phosphorylation enrichment (Fes): 1.23
phosphorylation enrichment (MERTK): 0.413
phosphorylation enrichment (FGFR1): 0.512
phosphorylation enrichment (Fyn): 0.312
phosphorylation enrichment (Jak2): 1.14
phosphorylation enrichment (Hck): 0.398
phosphorylation enrichment (c-Src): 0.445
phosphorylation enrichment (Fer (mouse)): 0.546
phosphorylation enrichment (FGFR3): 1.03
phosphorylation enrichment (EPHB2): 0.576

SH2 binding enrichment (c-Src SH2): 0.392
SH2 binding enrichment (Grb2 SH2): 0.702
SH2 binding enrichment (SHP2-C SH2): 0.642
Sequence: RTEAQYRFIYM [PTPN11_Y511_Q506R]
phosphorylation enrichment (c-Abl (mouse)): 1.44
phosphorylation enrichment (AncSZ): 1.2
phosphorylation enrichment (EPHB1): 0.724
phosphorylation enrichment (Fes): 1.72
phosphorylation enrichment (MERTK): 0.691
phosphorylation enrichment (FGFR1): 0.683
phosphorylation enrichment (Fyn): 0.423
phosphorylation enrichment (Jak2): 1.5
phosphorylation enrichment (Hck): 0.635
phosphorylation enrichment (c-Src): 0.754
phosphorylation enrichment (Fer (mouse)): 0.794
phosphorylation enrichment (FGFR3): 1.1
phosphorylation enrichment (EPHB2): 0.9
